Where two headings read alike, the source gives them in different places.
How the values were obtained:
[1] = target: RBD-SD1 (SARS-CoV-2), P0DTC2; settings: remark: other sources report otherwise
[2] = target: RBD-SD1 (SARS-CoV-2), P0DTC2; assay: epitope analysis, FIG. 3B; exponent as printed; settings: remark: other sources report otherwise

B1: N-612-004 (antibody, V domains shown)
VH: EVQLVESGGGLVQPGGSLRLSCAASGFTFSSYYMHWVRQAPGKGLEWVSAISGSGGYTYYADSVKGRFTISRDNSKNTLYLQMNSLRAEDTAVYYCARDRDHAYDWGFDVWGQGTLVTVSS
VL: DIQMTQSPSSLSASVGDRVTITCQASQDISNYLNWYQQKPGKAPKLLIYDASNLETGVPSRFSGSGSGTDFTFTISSLQPEDIATYYCQQWADWPLTFGQGTKVEIK
Work on B1 yielded a Kd [1] of 2.95 nM, a koff [1] of 0.000937 s⁻¹ and a kon [1] of 317000 M⁻¹ s⁻¹. The koff [2] was 0.00034 s⁻¹.

From US20230218743A1
